According to IntAct's records for PubMed 17128263:

B1: 1-phosphatidylinositol 4,5-bisphosphate phosphodiesterase gamma-1 (Rattus norvegicus (Rat)), P10686 (parent)
chain: MAGVGTPCANGCGPSAPSEAEVLHLCRSLEVGTVMTLFYSKKSQRPERKTFQVKLETRQITWSRGADKIEGSIDIREIKEIRPGKTSRDFDRYQEDPAFRPDQSHCFVILYGMEFRLKTLSLQATSEDEVNMWIKGLTWLMEDTLQAATPLQIERWLRKQFYSVDRNREDRISAKDLKNMLSQVNYRVPNMRFLRERLTDFEQRSGDITYGQFAQLYRSLMYSAQKTMDLPFLETNTLRTGERPELCQVSLSEFQQFLLEYQGELWAVDRLQVQEFMLSFLRDPLREIEEPYFFLDELVTFLFSKENSVWNSQLDAVCPETMNNPLSHYWISSSHNTYLTGDQFSSESSLEAYARCLRMGCRCIELDCWDGPDGMPVIYHGHTLTTKIKFSDVLHTIKEHAFVASEYPVILSIEDHCSIAQQRNMAQHFRKVLGDTLLTKPVDIAADGLPSPNQLKRKILIKHKKLAEGSAYEEVPTSVMYSENDISNSIKNGILYLEDPVNHEWYPHYFVLTSSKIYYSEETSSDQGNEDEEEPKEASGSTELHSSEKWFHGKLGAGRDGRHIAERLLTEYCIETGAPDGSFLVRESETFVGDYTLSFWRNGKVQHCRIHSRQDAGTPKFFLTDNLVFDSLYDLITHYQQVPLRCNEFEMRLSEPVPQTNAHESKEWYHASLTRAQAEHMLMRVPRDGAFLVRKRNEPNSYAISFRAEGKIKHCRVQQEGQTVMLGNSEFDSLVDLISYYEKHPLYRKMKLRYPINEEALEKIGTAEPDYGALYEGRNPGFYVEANPMPTFKCAVKALFDYKAQREDELTFTKSAIIQNVEKQDGGWWRGDYGGKKQLWFPSNYVEEMINPAILEPEREHLDENSPLGDLLRGVLDVPACQIAIRPEGKNNRLFVFSISMPSVAQWSLDVAADSQEELQDWVKKIREVAQTADARLTEGKMMERRKKIALELSELVVYCRPVPFDEEKIGTERACYRDMSSFPETKAEKYVNKAKGKKFLQYNRLQLSRIYPKGQRLDSSNYDPLPMWICGSQLVALNFQTPDKPMQMNQALFMAGGHCGYVLQPSTMRDEAFDPFDKSSLRGLEPCVICIEVLGARHLPKNGRGIVCPFVEIEVAGAEYDSTKQKTEFVVDNGLNPVWPAKPFHFQISNPEFAFLRFVVYEEDMFSDQNFLAQATFPVKGLKTGYRAVPLKNNYSEDLELASLLIKIDIFPAKENGDLSPFSGTSLRERASDASSQLFHVRAREGSFEARYQQPFEDFRISQEHLADHFDSRERRAPRRTRVNGDNRL
B2: 1-phosphatidylinositol 4,5-bisphosphate phosphodiesterase gamma-1 (Rattus norvegicus (Rat)), P10686 (parent)
chain: B1 chain
partner: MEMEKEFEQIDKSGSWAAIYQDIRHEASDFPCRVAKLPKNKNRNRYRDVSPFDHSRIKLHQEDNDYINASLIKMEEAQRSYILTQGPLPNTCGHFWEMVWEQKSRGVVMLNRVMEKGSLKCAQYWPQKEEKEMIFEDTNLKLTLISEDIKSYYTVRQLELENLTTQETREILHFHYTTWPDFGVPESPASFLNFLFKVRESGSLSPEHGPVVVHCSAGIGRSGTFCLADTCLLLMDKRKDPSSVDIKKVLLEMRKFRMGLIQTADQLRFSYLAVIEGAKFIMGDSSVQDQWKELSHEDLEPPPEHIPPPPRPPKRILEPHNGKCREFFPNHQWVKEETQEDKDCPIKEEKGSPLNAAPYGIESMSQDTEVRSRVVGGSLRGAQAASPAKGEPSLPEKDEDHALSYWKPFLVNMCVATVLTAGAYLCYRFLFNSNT

Variants of: B1
Settings: with jak2_mouse Jak2, Q62120

Variant	effect of a mutation on the interaction
R586K	disrupting interaction

Variants of: B2
Settings: with ptn1_human PTPN1, P18031

Variant	effect of a mutation on the interaction
R586K	disrupting interaction

Variants of: B2
Settings: with ptn1_human PTPN1, P18031
Remark: another data set of the same source

Variant	effect of a mutation on the interaction
P842K	disrupting interaction
